# From the DeepSol protein solubility set
# Experiment: soluble on expression in E. coli; label from the status in PepcDB or PDB records
row,Sequence,soluble on expression in E. coli
1,MSLYDPAEKYFNCTDIQRAFFEAGIKLGAIFHQYTGIPVNSENASMAEEFIERSTMIQPFVENVRISINNVKRSSGTYSYSSLNEKMLHAEVLINYNGKKVLGVLNYDEGLDYPVMYAKEVLEGHHHHHH,soluble
2,MAQKSALIILAAEGAEEMEVIITGDVLARGEIRVVYAGLDGAEPVKCARGAHIVPDVKLEDVETEKFDIVILPGGQPGSNTLAESLLVRDVLKSQVESGGLIGAICAAPIALLSHGVKAELVTSHPSVKEKLEKGGYKYSEDRVVVSGKIITSRGPGTAFEFALKIVELLEGKDKATSLIAPMLLKL,not soluble
3,GMELPVVVQQALGDNAPGVSFRSVSQIDTGHLLRMVLLSDDQGNLQAICRRNDMLDLEALNKRLGRDLRMMQRREQVRVRQKAGLQELPALPSLTGWPTVVDRRVDELEAVALELGEQDLGLMMPAEDFRQLTAKAARHDFAVDTANISVNLDNHAADRDQLHSAIKRFTGLRIQQRLEDTLELPPLPETAQRIIHLRVNPNAVMGDLVDVVESDPSLAAQVVSWASSSFYAAAGRVHSVHDAVSRVLGFDLVMNLAMGLALGRALKHPQDHPDGYVDYWQQAIWQAQSAGILASMMPRGQRPLFGLAYLAGLLHNFGHLVLAQVFPPHFKLVCRSLEVSPHIDSSVIEHYLLGITREQIAAQLMENWGMPDEVTLAIRYQKNPAYDGPHNVYARLLWLGRQLLTERGVALGAGESATQAVYDELGLDRELVQEQFDELVRRKDSIMAMAGMMSQGG,soluble
4,MEKKIGKLSIRVLLNTHRRNDCEIYPLIIRVVYHRRKSEYSLGWKIHTSNFSADRERVVYSSTGNLKRKDLGLINDAISQERERLLKIFAFLQQNMPGFSLSQLMDKYRMERNLRYVDAFIVREIERLRQEGRSGTAGLYLSGLYSLRRFLRGQKITFRELTYCFLTDYIHFLRMRGISENTVNMYIRNLRAVYNKAQKQGINMGCESPFRELKLQTQETAKRALCKHDIARIVSVDLSSEPLLDRARDLFMFSFYARGMPFVDIVFLKHDSIINGIIYYERNKTGQRMQVRVIPPLAALIEKYRSSYPYVLPYITSFSDRTSYMQYRYALGNVNRLLKRLGRRLHLPLVLTTYVARHSWATIAKEEGFSIASISEGLGHTSEATTQIYLQSFNSEVIDKINEQVVASIGRHI,not soluble
5,MVFKIKDEWGEFLVRLARRAIEEYLKTGKEIEPPKDTPPELWEKMGVFVTLNRYNVPPQTALRGCIGFPTPIYPLVEATIKAAIYSAVDDPRFPPVKLEEMDNLVVEVSVLTPPELIEGPPEERPRKIKVGRDGLIVEKGIYSGLLLPQVPVEWGWDEEEFLAETCWKAGLPPDCWLDEDTKVYKFTAEIFEEEYPRGPIKRKPLVLEHHHHHH,soluble
6,MPPKGGGAGSKKQQGGKKCKDDEADFDAQLAKALQEVQVSKDKQGGDANKKAQKGKQRTSKQESNGEANDNNDASDPKVVSTADHPDNPYPQVAEGMKRQTWPEPTIPVSQQFARGNFPVGIICEHPGEVNAYRYSSEEKRAMEHATEEQVQDLRCAAEVHRQVRRYAQSFIKPGISLLSMTDRIEKKLEELIEKDGLNRGQAFPTGCSLNHVAAHYTPNTGDKCVLMYDDVMKVDFGTQINGRIIDCAWTVAFKDEYEPLLTAVKEATYEGVKQAGIDVRLCDVGAAIQEVMESYEVELNGKVYPVKSIRNLSGHTIAPYVIHGGKSVPIVRGGEATRMEEGELFAIETFGSTGRGFVQEDMECSHYMMVPGGEKTQVRSDKAQQLLRHIHKTYNTLAFARKWLDRDGHDRHLLNLNQLVEAGAVNKYPPLCDIRGCYTAQLEHTLILKPTAKEILSKGDDY,soluble
7,MSPETMFFQDEDSRNLATNFIANYLKLWDANRSELMILYQNESQFSMQVDSSHPHLIESGNSGYSGSTDFGYYLNNSRNLTRVSSIKARMAKLSIGQEQIYKSFQQLPKTRHDIIATPELFSMEVYKFPTLNGIMITLHGSFDEVAQPEVDGSASSAPSGPRGGSRYHSGPKHKRIPLSKKSFDRTFVVIPGPNGSMIVASDTLLIRPYTSDFPWKVQK,soluble
8,MSEQPQQRSTEEVEAIKEDILTALETVIDPELGIDIVNLGLIYEVEFAEETGDTVIKMTLTTMGCPLADVLTEQIHGVLKDIPEVNNIEVKLVWYPAWTTDKMSRYARIALGIR,not soluble
9,MSSGSAGAPALSNNSTNSVAKEKSGNISGDEYLSQEEEVFDGNDIENNETKVYEESLDLDLERSNRQVWLVRLPMFLAEKWRDRNNLHGQELGKIRINKDGSKITLLLNENDNDSIPHEYDLELTKKVVENEYVFTEQNLKKYQQRKKELEADPEKQRQAYLKKQEREEELKKKQQQQKRRNNRKKFNHRVMTDRDGRDRYIPYVKTIPKKTAIVGTVCHECQVMPSMNDPNYHKIVEQRRNIVKLNNKERITTLDETVGVTMSHTGMSMRSDNSNFLKVGREKAKSNIKSIRMPKKEILDYLFKLFDEYDYWSLKGLKERTRQPEAHLKECLDKVATLVKKGPYAFKYTLRPEYKKLKEEERKATLGELADEQTGSAGDNAQGDAEADLEDEIEMEDVV,soluble
10,SVLEGNPEVGSPRTSDLQHRGNKGSCVLSSPGEDAQPGEEPIKYGELIVLGCCEEGGEETEAQRGEVTGPRAHSCYNGCLASGDKGRRRSRLALSRRSHANGVKPDVMHHISTPLVSKALSNRGQHSISYTLSRSHSVIVEYTHDSDTDMFQIGRSTENMIDFVVTDTSPGGGAAEGPSAQSTISRYACRILCDRRPPYTARIYAAGFDASSNIFLGERAAKWRTPDGLMDGLTTNGVLVMHPAGGFSEDSAPGVWREISVCGNVYTLRDSRSAQQRGKLVGGPLHSPPLSLPGPHKLPIPLPKPGDDLQSFCPREPQQAPYQGIPGPGGS,soluble
11,MGHHHHHHSHQELASKRVDIQNKRFYLDVKQNAKGRFLKIAEVGAGGNKSRLTLSMSVAVEFRDYLGDFIEHYAQLGPSQPPDLAQAQDEPRRALKSEFLVRENRKYYMDLKENQRGRFLRIRQTVNRGPGLGSTQGQTIALPAQGLIEFRDALAKLIDDYGVEEEPAELPEGTSLTVDNKRFFFDVGSNKYGVFMRVSEVKPTYRNSITVPYKVWAKFGHTFCKYSEEMKKIQEK,not soluble
12,MFEPGHLHLVSLPGLDQQDINIHIRYEVRQNAESGAYVHFDMDGEIDGKPFSDSFELPRDTAFNFASDATRVAQKHGLHPKFGAITRVHKEYDAMFEDIRAKLHAHPGEPVDLERIIRHE,not soluble
13,MSATKSEMPADVASVTDSSAASPAFPLIGDFLEEFLKCQVCCTNYNETTKLARGLHCGHTFCTECIKTMQKYGNSAYLECPSCRAETKCDIAAVSTNFAIMELIRKCGFLGPEKPEEPPMKQAAQPQLEQTIDELIDEGYRLLIADVKADLMAKFEQLRDVSKTSTIEATKADLEVLCDSVKEAVYEADLEYSYDEEESDEDEEENEDEEDVEEEEEKPCAEKKSPAQPERSSSLVRGFQIGLSRLFRNRRIHTEHLQVDHGAIATKLETRAACTEKSDNVKK,not soluble
14,SNASDKGKLSLQDVAELIRARACQRVVVMVGAGISTPSGIPDFRSPGSGLYSNLQQYDLPYPEAIFELPFFFHNPKPFFTLAKELYPGNYKPNVTHYFLRLLHDKGLLLRLYTQNIDGLERVSGIPASKLVEAHGTFASATCTVCQRPFPGEDIRADVMADRVPRCPVCTGVVKPDIVFFGEPLPQRFLLHVVDFPMADLLLILGTSLEVEPFASLTEAVRSSVPRLLINRDLVGPLAWHPRSRDVAQLGDVVHGVESLVELLGWTEEMRDLVQRETGKLDGPDK,soluble
15,KMPVTAGLTVEKKINKHLAVETGLLYSNLRAEQNLHYLGIPVKLNVTLAETPKFDLYASVGGVADKCIAGAPDNSFKNEPVQLALTAGVGMNYKINDKLALFAEPG,not soluble
16,MSVTVFIPGDSAALAVGANRVAEAIAREAASRNLDVQIVRNGSRGMLWLEVLVEVRTEHGRIAYGPVKAADVTSLFDADFLDGGDHRLCLGPTKDIPFLKNQTRLTFARCGVTDPLSLEDYRNYQGMKGLEKAVTMEPLAIVAQVTESGLRGRGGAGFPTGIKWKTVADARADQKYIVCNADEGDSGTFADRMIMEGDPFVLIEGMAIAGLAVGATKGFIYTRSEYPYAIKVMEKAIEIARREGILGSSVLGSGRAFDMEVRMGAGAYVCGEETSLLNSLEGKRGTVRAKPPLPALQGLFGKPTVVNNVISLASIPVIMDRGAAFYRDFGVGRSHGTIPIQLAGNIRYGGLYETAFGLTLGQLVNDIGGGTITGRPVKAVQVGGPLGAYFPVSLFDTIFDYEAFTAAGGLIGHAGIVVFDDTADMLHQARFALEFCAVESCGKCTPCRIGSTRGVETVDKIALGIEREKNTALLEDLCETMKFGSLCALGGFTPYPVMSALRHFPQDFAPIPRVEAAEAAALEHHHHHH,not soluble
17,MNWYELYWQRITPLHLFLWPVSQLLILFQSVRRFLYRRAILTSIHLPVPIIIIDSITTDSPVKTSLIIQIANILKAAGLRPGIISRGYPDNHRPPTRVTISSHPHLTGEKSLLLTYHLRETCPVWIGYDRIETAKALLNAHKECNVLICDDGLQDLRLQRDFEAVIVDTSVINSGNGLIMPAGPLRDSFARLKHTDAVILAGHQRRIPDITDEIRTIHTRPQKEHFFNLSWPELTADAAGLAGKRIHAIVCDPDTQNFLDNLEFLKLTVTPRVFPENHHFIATDFQSDEAEIILIPEEDAVKCLSLHDDRIWVLQQEYRVDPGLREIILKKLREKFMDPKLLDILVCPLCKGSLIYKKDRLELICKADRLAYPIRDGIPVMLEDEARKLPDEEEIKLEHHHHHH,not soluble
18,MNDSSVIYRAIVTSKFRTEKMLNFYNSIGSGPDKNTIFITFGRSEPWSSNENEVGFAPPYPTDSVLGVTDMWTHMMGTVKVLPSMLDAVIPRRDWGDTRYPDPYTFRINDIVVCNSAPYNATESGAGWLVYRCLDVPDTGMCSIASLTDKDECLKLGGKWTPSARSMTPPEGRGDAEGTIEPGDGYVWEYLFEIPPDVSINRCTNEYIVVPWPEELKEDPTRWGYEDNLTWQQDDFGLIYRVKANTIRFKAYLDSVYFPEAALPGNKGFRQISIITNPLEAKAHPNDPNVKAEKDYYDPEDLMRHSGEMIYMENRPPIIMAMDQTEEINILFTF,soluble
19,MWRIELKHAVNWELKMKFFVLPELPTPDVVESGVWRRAIVLDGRAVAVMAYPESERTIVVEGNFENREWEAVRRKLVEYLGLQNPEELYRFMDGDEKLRMLKNRFYGFGRAGLMSMSVFEGIAKAIIQQQISFVVAEKLAAKIVGRFGDEVEWNGLKFYGFPTQEAILKAGVEGLRECGLSRRKAELIVEIAKEENLEELKEWGEEEAYEYLTSFKGIGRWTAELVLSIALGKNVFPADDLGVRRAVSRLYFNGEIQSAEKVREIARERFGRFARDILFYLFLYDRFFSKKTELV,soluble
20,MDASLTGAVAELGTSKAAARIRAAAIEVFAAKGYGATTTREIAASLDMSPGAVYPHYKTKESLLYAISLEGHHSVLAAITAADFPDIAAPDRLMSTVTAYVTWHADNRASARVGQYELRSLSPEHFAIIADIRRSTTKVFTRIIEAGATAGDFHPFDIEAAALAITSLGIDVSRWFPSHTYSDPRIIAARYVELALRMVGCADRQPLDKPS,soluble
21,SAAKALKDLKNLPVSERNIDYKTKLLVGKMNGTAEDKPPQNSVPFDHNHPKGDEIEKPEAERVIVEIEYIESKDLNNVTQVDAVLKSLVTELDSKDWVLVCDALNTIRRLSIFHKEEMLHMLEKVILFIVKSLKNPRSAVSKTACMTSADIFSSYNDHTIDQLDLLLTQLLLKSSQDKRFVCEAAEKALVAMTAHVSPALLLPKLQPFLKNRNPRIRAKASTCFSRCVPRLGIEGIREYGIEKLVQAASSQLSDQLPESREAARAVLLELQTVYKKTTNVEPKEEHPEPVTWQIFCQSNLSPLSAQAVIRVTNVAGVAREGLVAGS,soluble
22,MSEIKRLEINYKTDELFENFRAFGNKDLYMVNELNGQMIDASSDSPFYGIFVGDQLGARMALLKKGDVEEIYFPDFEDYILLWKLEVLPKYQNRGYASELIDFAKSFNMPIKAIGRNDSKDFFLHHGFTDVEAKNIEGHDVLLWKPIRLEHHHHHH,not soluble
